According to patent US20260201002A1, “KERATIN CF1, PREPARATION METHOD THEREFOR, PHARMACEUTICAL COMPOSITION COMPRISING SAME, AND USE THEREOF” (INSTITUTE OF MATERIA MEDICA ,CHINESE ACADEMY OF MEDICAL …, priority 2023, published 2026):
Structures can show the parent of a compound that is named as a salt.

Experiments:
[1] = test system: ammonia water-induced cough in mice; assay: Antitussive effect on ammonia water-induced cough in mice; assay type: in vivo, ICR mice; conditions: for Latency period: 1 hour before 10% ammonia water 10 seconds, solvent control 30.0 ± 1.8; for Latency period / Cough frequency: X ± SEM; for Cough frequency: within 2 minutes, 1 hour before 10% ammonia water, solvent control 65.5 ± 3.8
Procedure: • Animals: male ICR mice; • Drug and reagents: dextromethorphan hydrobromide, ammonia, 0.2% CMC-Na, protein CF1; • Instruments: Compressed nebulizer (403T), balance (XS105DU). • Experiment grouping: • Solvent control group; • Dextromethorphan 15 mg/kg group; • Protein CF1, 20 mg/kg group, 50 mg/kg group.
Model establishment and drug administration: Mice were orally administered dextromethorphan or varying doses of protein CF1 (administration volume: 10 ml/kg). The solvent control group were administered an equal volume of distilled water. After 1 hour, mice were placed in a sealed chamber and atomized with 10% ammonia water for 10 seconds. The cough latency period and cough frequency within 2 minutes were then observed and recorded.
Data processing: The oral administration time point, the nebulization exposure time point, the cough latency period, and the cough frequency within 2 minutes were recorded respectively. The cough latency period refers to the time interval of seconds required from the start of ammonia nebulization to the occurrence of coughing. The manifestation of coughing in mice is characterized by the contraction of their abdominal muscles (chest retraction) and the opening of their mouths wide. The mean and standard error of data in each group were calculated. The TTEST test was applied to compare the model group with the other groups. P<0.05 was considered as a significant difference.

[2] = test system: yeast-induced fever model in rats; assay: Yeast-induced SD rat fever model; assay type: in vivo, SD rats; conditions: for Basal body temperature: rectal temperature before modeling, N=8; for Body temperature 2 hours after modeling / Body temperature 6 hours after modeling / Body temperature 8 hours after modeling / Body temperature 4 hours after modeling: then 20% yeast suspension 10 ml/kg s.c.; for Body temperature 2 hours after modeling: model group 37.5 ± 0.1; for Body temperature 6 hours after modeling / Body temperature 8 hours after modeling: model group 37.6 ± 0.1; for Body temperature 4 hours after modeling: model group 37.7 ± 0.1; for Effect on body temperature of model rats (in words): P<0.05 vs model group
Procedure: • Animals: male SD rats, weight 230-260 grams; • Medicines: yeast (OXOID LP0021), Aspirin (SIGMA A2093), protein CF1; • Instruments: electronic balance (SARTORIUS BP121S), electronic clinical thermometer • (CITIZEN CT-513W). • Experiment grouping: • Normal control group; • Model group: yeast-induced fever model; • Positive control group: Aspirin 300 mg/kg group; • Protein CF1, 10 mg/kg group, 50 mg/kg group.
Preparation of experimental animals: After the experimental animals were adapted to the experimental environment (temperature 22° C.±2° C., relative humidity 50%±2%) for 1 day, the rectal temperature was measured for pre-adaptation at 8:00 in the morning and 15:00 respectively. The animals were fasted for 12 hours before the experiment with water provided ad libitum, and their bowels were emptied before the rectal temperature was measured. Before each temperature measurement, the probe of the electronic thermometer was applied with Vaseline and inserted 2 cm into the rat's rectum (a marker was made at 2 cm to ensure consistent insertion depth each time). The body temperature was recorded after readings stabilized.
(§1) Subcutaneous injection of dry yeast to replicate the rat fever model: Before model establishment, the body temperature of rats was measured. Qualified rats with body temperatures of 36.2-37.3° C. were selected and randomly grouped, with 8 rats per group. After oral administration of aspirin and different doses of protein CF1, 20% yeast suspension (10 ml/kg) was immediately subcutaneously injected. The normal control group was subcutaneously injected with the same volume of normal saline. The body temperatures of rats were monitored 2 hours later, once every 2 hours, for a total of 8 hours.
(§2) Based on the body temperature values measured at each time point on the day of the experiment, the mean, standard deviation and standard error of body temperature of rats in each group were calculated. The TTEST test was applied to compare the data of each group between groups, and P<0.05 was considered as a significant difference.

[3] = test system: lipopolysaccharide (LPS) induced fever in rats; assay: Lipopolysaccharide (LPS)-induced SD rat fever model; assay type: in vivo, SD rats; conditions: for Body temperature 2 hours after modeling / Body temperature 4 hours after modeling / Body temperature 6 hours after modeling / Body temperature 8 hours after modeling: then LPS 20 μg/kg i.p.; for Body temperature 2 hours after modeling / Body temperature 4 hours after modeling: model group 37.7 ± 0.1; for Body temperature 6 hours after modeling: model group 37.8 ± 0.2; for Body temperature 8 hours after modeling: model group 37.9 ± 0.2; for Effect on body temperature of model rats (in words): P<0.05 vs model group
Procedure: • Animals: Male SD rats, weight: 230-260 grams; • Drugs: lipopolysaccharide (LPS, SIGMA L-2880), aspirin (SIGMA A2093), protein CF1; • Instruments: electronic balance (SARTORIUS BP121S), electronic clinical thermometer (CITIZEN CT-513W). • Experiment grouping: • Normal control group; • Model group: lipopolysaccharide fever model group; • Positive control group: Aspirin 300 mg/kg group; • Protein CF1, 10 mg/kg group, 50 mg/kg group. • Method: the method for replicating the rat fever model via intraperitoneal injection of lipopolysaccharide. • Preparation of experimental animals: After the experimental animals were adapted to the experimental environment (temperature 22° C.±2° C., relative humidity 50%±2%) for 1 day, the rectal temperature was measured for pre-adaptation at 8:00 in the morning and 15:00 respectively. The animals were fasted for 12 hours before the experiment with water provided ad libitum, and their bowels were emptied before the rectal temperature was measured. Before each temperature measurement, the probe of the electronic thermometer was applied with Vaseline and inserted 2 cm into the rat's rectum (a marker was made at 2 cm to ensure consistent insertion depth each time). The body temperature was recorded after readings stabilized.
as §1, with “Intraperitoneal Injection” for “Subcutaneous injection”, “Lipopolysaccharide” for “dry yeast”, “lipopolysaccharide (20 μg/kg, 2” for “20% yeast suspension (10”, “intraperitoneally” for “subcutaneously”, “later and” for “later, once every 2 hours,”
as §2

[4] = aspirin 300 mg/kg oral, 2, 4, 6 and 8 hours after modeling

COc1ccc2c(c1)[C@]13CCCC[C@@H]1[C@H](C2)N(C)CC3 [Dextromethorphan, dextromethorphan hydrobromide, reference compound]
Latency period ([1]; dextromethorphan 15 mg/kg oral): 45.4 ± 2.1 s
Effect on latency period and cough frequency (in words) ([1]; dextromethorphan 15 mg/kg oral, vs solvent control group, P<0.05): significant improvements in terms of latency period and cough frequency
Cough frequency ([1]; dextromethorphan 15 mg/kg oral): 36.8 ± 2.8

CC(=O)Oc1ccccc1C(=O)O [Aspirin, aspirin, reference compound]
Basal body temperature ([2]; aspirin 300 mg/kg oral group): 36.9 ± 0.1 °C
Body temperature 2 hours after modeling ([2]; aspirin 300 mg/kg oral): 36.9 ± 0.1 °C
Body temperature 6 hours after modeling ([2]; aspirin 300 mg/kg oral): 37.2 ± 0.1 °C
Body temperature 8 hours after modeling ([2]; aspirin 300 mg/kg oral): 37.1 ± 0.1 °C
Body temperature 4 hours after modeling ([2]; aspirin 300 mg/kg oral): 37.1 ± 0.2 °C
Effect on body temperature of model rats (in words) [2, 4]: can effectively inhibit the increase of body temperature
Body temperature 2 hours after modeling ([3]; aspirin 300 mg/kg oral): 37.0 ± 0.2 °C
Body temperature 4 hours after modeling ([3]; aspirin 300 mg/kg oral): 37.0 ± 0.2 °C
Body temperature 6 hours after modeling ([3]; aspirin 300 mg/kg oral): 37.3 ± 0.1 °C
Body temperature 8 hours after modeling ([3]; aspirin 300 mg/kg oral): 37.2 ± 0.1 °C
Effect on body temperature of model rats (in words) [3, 4]: can effectively inhibit the increase of body temperature

B1: CF1: keratin with the amino acid sequence of SEQ ID NO. 1, expressed in E. coli; tested batch is the protein in Example 7 (protein)
chain: MSCRSYRVSSGHRVGNFSSCSAGIPRNLNRFRASSVSCRSGPSFRGIGGFGSRSVITFGSCSPRIAAVGPRPIRCGVGFGAGSGMAFGFGDGIGAGLGFGSGSYLGYGFGGPGFGYRVGGIGVPAAPSITPVTVNQSLLTPLNLEIDPNAQRVKRDEKEQIKTLNNRFASFIDKVRFLEQQNKLLETKWSFLQEQKGARSNLEPLFENYITNLQRQLDIANSERARFEAERNQLQDVLEGFKKKYEEEVVFRANAENEFVALKKDVDAAFLNKAELEANVDTLTQEIDFLKTLYAAEIQLLQSHISETSVIVKMDNSRDLDLDGIIAEVRAQYEEVAKRSRADAEAWYQTKYEEMRVTAGQHCDNLRNTREEINELTRLIQRLKAEIEHAKAQRARLEAAVAEAEQQGEAALNDAKCKLADLEAALQQAKQDMARQLREYQELMNAKLGLDIEIATYRRLLEGEEIRICEGVGPVNISVSSSRGGVVCGPESLVTSSTLSRSGVTFSGSSSIRPSGACGSSLGGVVVAGGDLLSAGSRGGSVLVGEACVPSVPCPLPTEGFSSCSGGRSSSLRFVSTTTSRRTKY
Latency period ([1]; CF1 20 mg/kg oral): 34.6 ± 3.1 s
Effect on cough frequency (in words) ([1]; CF1 20 mg/kg oral, vs solvent control group): statistically significant difference in term of cough frequency, but the effect is weak
Latency period ([1]; CF1 50 mg/kg oral): 35.1 ± 4.6 s
Antitussive effect (summary, in words) ([1]; dose not stated): can reduce the cough frequency
Cough frequency ([1]; CF1 20 mg/kg oral): 50.1 ± 2.8
Cough frequency ([1]; CF1 50 mg/kg oral): 56.4 ± 4.2
Effect on body temperature of model animals (summary, in words) ([2]; 8 hours post-modeling, dose not stated): significant effect in reducing the elevated body temperature
Basal body temperature ([2]; CF1 10 mg/kg oral group): 36.9 ± 0.1 °C
Body temperature 2 hours after modeling ([2]; CF1 10 mg/kg oral): 37.0 ± 0.1 °C
Body temperature 6 hours after modeling ([2]; CF1 10 mg/kg oral): 37.4 ± 0.1 °C
Body temperature 8 hours after modeling ([2]; CF1 10 mg/kg oral): 37.2 ± 0.05 °C
Body temperature 4 hours after modeling ([2]; CF1 10 mg/kg oral): 37.3 ± 0.1 °C
Effect on body temperature of model rats (in words) ([2]; CF1 10 mg/kg oral, 2 hours and 8 hours post-modeling): can significantly inhibit the temperature elevation
Basal body temperature ([2]; CF1 50 mg/kg oral group): 36.8 ± 0.1 °C
Body temperature 2 hours after modeling ([2]; CF1 50 mg/kg oral): 36.8 ± 0.1 °C
Body temperature 6 hours after modeling ([2]; CF1 50 mg/kg oral): 37.4 ± 0.1 °C
Body temperature 8 hours after modeling ([2]; CF1 50 mg/kg oral): 37.4 ± 0.1 °C
Body temperature 4 hours after modeling ([2]; CF1 50 mg/kg oral): 37.2 ± 0.1 °C
Effect on body temperature of model rats (summary, in words) ([3]; 2 hours post-modeling, dose not stated): significant effect in reducing the body temperature
Body temperature 2 hours after modeling ([3]; CF1 10 mg/kg oral): 37.3 ± 0.1 °C
Body temperature 4 hours after modeling ([3]; CF1 10 mg/kg oral): 37.7 ± 0.2 °C
Body temperature 6 hours after modeling ([3]; CF1 10 mg/kg oral): 37.7 ± 0.2 °C
Body temperature 8 hours after modeling ([3]; CF1 10 mg/kg oral): 37.9 ± 0.1 °C
Effect on body temperature of model rats (in words) ([3]; CF1 10 mg/kg oral, 2 hours after modeling): can significantly reduce the body temperature
Basal body temperature ([3]; CF1 50 mg/kg oral group, rectal temperature before modeling, N=8): 36.8 ± 0.05 °C
Body temperature 2 hours after modeling ([3]; CF1 50 mg/kg oral): 37.3 ± 0.2 °C
Body temperature 4 hours after modeling ([3]; CF1 50 mg/kg oral): 37.6 ± 0.2 °C
Body temperature 6 hours after modeling ([3]; CF1 50 mg/kg oral): 37.9 ± 0.2 °C
Body temperature 8 hours after modeling ([3]; CF1 50 mg/kg oral): 37.9 ± 0.1 °C
